{
  "source": "patent US7470669B2",
  "about": "“Isolated polypeptide comprising a leptin fragment” (Serono Genetics Institute, S.A., priority 1999, dated 2008)",
  "target": "T1, LSR α′ (Homo sapiens, UniProt Q86X29)",
  "T1 construct": "The full-length LSR α, α′, and β clones were reconstructed in pTracer-CMV2 vector; expressed in transfected cells; host or cells: CHO-K1 (transient with Fugene)",
  "T1 sequence (Q86X29 1-630 isoform Q86X29-4)": "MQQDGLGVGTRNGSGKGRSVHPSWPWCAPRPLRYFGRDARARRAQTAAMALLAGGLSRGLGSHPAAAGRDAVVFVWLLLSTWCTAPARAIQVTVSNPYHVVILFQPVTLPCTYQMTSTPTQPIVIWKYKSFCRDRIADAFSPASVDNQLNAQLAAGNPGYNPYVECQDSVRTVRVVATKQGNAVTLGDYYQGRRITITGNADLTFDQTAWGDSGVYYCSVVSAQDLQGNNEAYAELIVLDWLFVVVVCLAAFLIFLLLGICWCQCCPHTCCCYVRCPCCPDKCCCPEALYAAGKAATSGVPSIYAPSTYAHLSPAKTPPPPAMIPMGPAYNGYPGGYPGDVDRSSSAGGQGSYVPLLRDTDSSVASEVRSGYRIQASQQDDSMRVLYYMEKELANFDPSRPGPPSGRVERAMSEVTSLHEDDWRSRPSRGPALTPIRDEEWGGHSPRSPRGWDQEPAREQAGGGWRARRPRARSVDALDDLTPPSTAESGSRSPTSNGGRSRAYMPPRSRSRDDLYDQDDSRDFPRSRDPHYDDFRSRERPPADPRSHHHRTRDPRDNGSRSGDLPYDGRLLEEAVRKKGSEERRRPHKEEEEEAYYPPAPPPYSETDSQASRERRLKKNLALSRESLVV",
  "test": "125I-leptin binding, uptake and degradation in CHO-K1 cells transfected with LSR α′",
  "type": "cell-based",
  "protocol": "FIGS. 3A, 3B, 3C, and 3D show the effect of LSR subunit transfection on leptin binding and degradation in CHO-K1 cells. For FIG. 3A, CHO-K1 cells were transfected with increasing concentrations of the α, (□), α′ (▪) or β (◯) LSR plasmid, or vector alone (●) using Fugene transfection reagent. After 48 h, the cells were washed once in PBS and incubated at 37° C. for 2 h with 10 ng/mL of ^125I-leptin in DMEM containing 0.2% (w/v) BSA, 2 mM CaCl2 and 5 mM HEPES, pH 7.4 (Buffer A). The monolayers were washed and lysed with 0.1 N NaOH containing 0.24 mM EDTA, and the lysates were counted. The results are shown as the amount of cell-associated ^125I-leptin. For FIG. 3B, lysates were prepared from CHO-K1 wild type, stable transfectants of vector or LSR α′ subunit, and PLC, and separated on a 10% SDS-polyacrylamide gel under denaturing and reduced conditions. After transfer to nitrocellulose, Western blots were performed using anti-LSR 170 antibody (can also be done with the human equivalent, 93A). Northern blots were done to detect LSR mRNA in CHO-K1 wild-type versus PLC. RT-PCR analysis was also done in CHO-K1 as compared to PLC. For FIGS. 3C and 3D, confluent monolayers of stable-transfected cell lines expressing LSR α′ subunit (▪) or vector alone (●) were washed once in PBS and incubated at 37° C. for 2 h with increasing concentrations of ^125I-leptin in Buffer A. The amount of cell-associated (FIG. 3C) and degraded (FIG. 3D) ^125I-leptin was then measured as described herein. Results are shown as the mean of triplicate determinations.\nCHO-K1 cells were plated at a density of 300,000 cells/36 mm dish the day before transfection. After 24 h, plasmid preincubated with Fugene transfection reagent was added to the cells, which were further incubated at 37° C. Cells were used 48 h after transfection as described in the Brief Description of the Figures.\nStable transfectants were prepared from CHO-K1 cells using Superfect according to the manufacturer's instructions. After introduction of the plasmid into the cell with Superfect, the cells were grown in the presence of 750 μg/mL zeocin. After elimination of untransfected cells, the antibiotic concentration was reduced to 500 μg/mL. Clones were isolated using cloning cylinders, and maintained in tissue culture media containing 100 μg/mL zeocin.\nTo determine which of the LSR subunits is responsible for leptin binding, CHO-K1 cells were transiently transfected with increasing concentrations of each of the 3 human LSR plasmids (FIG. 3A). CHO-K1 cells were selected because they had the lowest level of endogenous LSR expression of the different cell lines tested. This level is far lower than that of a human hepatocyte cell line (PLC) used to systematically characterize human LSR activity (FIG. 3B). […]",
  "data": [
    {"substance": "leptin: plasma protein of 16 kDa produced by adipocytes; recombinant human or mouse leptin, species depends on the experiment", "values": [
      {"measurement": "Kd", "setting": "CHO-K1 cells stably expressing LSR α′, Lineweaver-Burk transformation, read-out: estimated Kd of leptin binding", "result": 1.3, "unit": "nM"},
      {"measurement": "amount of 125I-leptin degraded as share of that bound and internalized by the cells", "setting": "CHO-K1 cells transfected with LSR α′", "result": 16, "unit": "%"},
      {"measurement": "Kd relative to that of the Ob-R", "setting": "LSR α′ Kd versus Ob-R Kd", "result": "~2", "unit": "fold"},
      {"measurement": "binding of leptin to CHO-K1 cells", "setting": "transient transfection with LSR α′ plasmid, 10 ng/mL 125I-leptin, 2 h 37° C.", "result": "increased"}
    ]}
  ]
}
